Biological target: full length human importin β (KPNB1), expressed from pET30a-WT Importin β (pKW485) (human, UniProt Q14974 1-876)
Assay: FRET; displacement of importin β-bound Rango sensor

full length human importin β (KPNB1), expressed from pET30a-WT Importin β (pKW485), sequence (Q14974 whole entry): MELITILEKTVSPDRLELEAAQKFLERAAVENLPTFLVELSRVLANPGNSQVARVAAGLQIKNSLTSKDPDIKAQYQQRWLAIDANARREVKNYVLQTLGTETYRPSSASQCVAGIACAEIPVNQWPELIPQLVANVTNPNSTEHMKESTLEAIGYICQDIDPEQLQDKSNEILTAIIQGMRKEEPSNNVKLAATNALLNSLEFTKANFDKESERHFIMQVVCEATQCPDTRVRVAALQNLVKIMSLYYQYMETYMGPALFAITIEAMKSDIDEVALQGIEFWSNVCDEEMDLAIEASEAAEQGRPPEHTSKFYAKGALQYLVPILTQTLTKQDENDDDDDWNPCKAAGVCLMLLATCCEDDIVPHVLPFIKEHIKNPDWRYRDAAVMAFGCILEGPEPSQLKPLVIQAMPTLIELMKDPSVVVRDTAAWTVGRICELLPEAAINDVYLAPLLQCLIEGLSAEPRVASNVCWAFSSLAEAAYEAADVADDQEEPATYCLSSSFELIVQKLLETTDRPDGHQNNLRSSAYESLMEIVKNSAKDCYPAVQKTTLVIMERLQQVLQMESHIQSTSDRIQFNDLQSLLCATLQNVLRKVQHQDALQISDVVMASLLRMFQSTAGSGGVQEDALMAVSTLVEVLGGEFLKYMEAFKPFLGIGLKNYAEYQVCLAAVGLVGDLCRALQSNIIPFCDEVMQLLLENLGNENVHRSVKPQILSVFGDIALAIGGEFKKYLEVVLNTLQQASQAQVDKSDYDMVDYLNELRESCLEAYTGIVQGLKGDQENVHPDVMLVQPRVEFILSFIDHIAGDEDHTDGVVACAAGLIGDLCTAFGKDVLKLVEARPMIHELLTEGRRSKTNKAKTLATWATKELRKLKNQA

Binder: PRPRPRPRPRPRPRPRPRPRKC
- Kd: 8.2 nM

Binder: GRGRGRGRGRGRGRGRGRGRKC
- Kd: 17.4 nM

From doi:10.1101/787473 (2019)
